Measurements reported in patent US11591404B2, “Treatment of cancer using a CD123 chimeric antigen receptor” (Novartis AG, priority 2014, dated 2023).

Tests used:
[1] = tested on: cynomolgus CD123; assay: Cross-reactivity of anti-CD123 clones against cynomolgus CD123; type: binding
[2] = tested on: MOLM14 (CD123+ tumor cells); assay: CD107a degranulation of CART cells, 2 hours; type: cell-based; details: 2-hr in vitro assay, CD123+ targets
Procedure: To assess degranulation, CART cells (NVS 2-4, 1172 and 1176 clones) were thawed, rested overnight at a concentration of 2e^6 cells/ml in T cell media. Cells were then counted and resuspended at 1e^6 cells/ml the following day. Tumor target cells (TCM, PMA/iono, MOLM14 or JURKAT) were resuspended at 5e^6 cells/ml. Cells were plated at a ratio of 1e^5 T cell: 5e^5 tumor cell in 48 well plates and incubated for 2 hours in the presence of anti-CD107a PECy7, anti-CD49d purified, and anti-CD28 purified antibodies. Cells were then harvested, stained with anti-CD3 APC and acquired using BD LSR Fortessa (FIG. 7).

B1: CAR123-3: fully human anti-CD123 scFv CAR with 4-1BB and CD3zeta; CAR amino acid SEQ ID NO: 100 (protein, listed as Homo sapiens)
chain: MALPVTALLLPLALLLHAARPQVQLVQSGAEVKKPGASVKVSCKASGYIFTGYYIHWVRQAPGQGLEWMGWINPNSGGTNYAQKFQGRVTMTRDTSISTAYMELSGLRSDDPAVYYCARDMNILATVPFDIWGQGTLVTVSSGGGGSGGGGSGGGGSDIQLTQSPSSLSASVGDRVTITCRASQSISSYLNWYQQKPGKAPKLLIYAASSLQSGVPSRFSGSGSGTDFTLTVNSLQPEDFATYYCQQGDSVPLTFGGGTKVEIKTTTPAPRPPTPAPTIASQPLSLRPEACRPAAGGAVHTRGLDFACDIYIWAPLAGTCGVLLLSLVITLYCKRGRKKLLYIFKQPFMRPVQTTQEEDGCSCRFPEEEEGGCELRVKFSRSADAPAYKQGQNQLYNELNLGRREEYDVLDKRRGRDPEMGGKPRRKNPQEGLYNELQKDKMAEAYSEIGMKGERRRGKGHDGLYQGLSTATKDTYDALHMQALPPR
[1]
  cross-reactivity against cynomolgus CD123: cross-reactive against cynomolgus CD123

B2: CAR123-4: fully human anti-CD123 scFv CAR with 4-1BB and CD3zeta; CAR amino acid SEQ ID NO: 101 (protein, listed as Homo sapiens)
chain: MALPVTALLLPLALLLHAARPQVQLQQSGAEVKKSGASVKVSCKASGYTFTDYYMHWLRQAPGQGLEWMGWINPNSGDTNYAQKFQGRVTLTRDTSISTVYMELSRLRSDDTAVYYCARDMNILATVPFDIWGQGTMVTVSSASGGGGSGGRASGGGGSDIQMTQSPSSLSASVGDRVTITCRASQSISSYLNWYQQKPGKAPKLLIYAASSLQSGVPSRFSGSGSGTDFTLTISSLQPEDFATYYCQQGDSVPLTFGGGTKVEIKTTTPAPRPPTPAPTIASQPLSLRPEACRPAAGGAVHTRGLDFACDIYIWAPLAGTCGVLLLSLVITLYCK
[1]
  cross-reactivity against cynomolgus CD123: cross-reactive against cynomolgus CD123

B3: 1176: murine CD123 CAR construct, CD123 4-1BBCD3z-CAR (26292), SEQ ID NO: 708, described in PCT/US2014/017328 (protein)
chain: MALPVTALLLPLALLLHAARPGSDVQITQSPSYLAASPGETITINCRASKSISKDLAWYQEKPGKTNKLLIYSGSTLQSGIPSRFSGSGSGTDFTLTISSLEPEDFAMYYCQQHNKYPYTFGGGTKLEIKGGGGSGGGGSSGGGSQVQLQQPGAELVRPGASVKLSCKASGYTFTSYWMNWVKQRPDQGLEWIGRIDPYDSETHYNQKFKDKAILTVDKSSSTAYMQLSSLTSEDSAVYYCARGNWDDYWGQGTTLTVSSASSGTTTPAPRPPTPAPTIASQPLSLRPEACRPAAGGAVHTRGLDFACDIYIWAPLAGTCGVLLLSLVITLYCKRGRKKLLYIFKQPFMRPVQTTQEEDGCSCRFPEEEEGGCELRVKFSRSADAPAYKQGQNQLYNELNLGRREEYDVLDKRRGRDPEMGGKPRRKNPQEGLYNELQKDKMAEAYSEIGMKGERRRGKGHDGLYQGLSTATKDTYDALHMQALPPR
[1]
  cross-reactivity against cynomolgus CD123: cross-reactive against cynomolgus CD123
[2]
  T cell degranulation (CD107a): 65%

B4: 1172: murine CD123 CAR construct, CD123 4-1BBCD3z-CAR, SEQ ID NO: 707, described in PCT/US2014/017328 (protein)
chain: MALPVTALLLPLALLLHAARPGSDIVLTQSPASLAVSLGQRATISCRASESVDNYGNTFMHWYQQKPGQPPKLLIYRASNLESGIPARFSGSGSRTDFTLTINPVEADDVATYYCQQSNEDPPTFGAGTKLELKGGGGSGGGGSSGGGSQIQLVQSGPELKKPGETVKISCKASGYIFTNYGMNWVKQAPGKSFKWMGWINTYTGESTYSADFKGRFAFSLETSASTAYLHINDLKNEDTATYFCARSGGYDPMDYWGQGTSVTVSSASSGTTTPAPRPPTPAPTIASQPLSLRPEACRPAAGGAVHTRGLDFACDIYIWAPLAGTCGVLLLSLVITLYCKRGRKKLLYIFKQPFMRPVQTTQEEDGCSCRFPEEEEGGCELRVKFSRSADAPAYKQGQNQLYNELNLGRREEYDVLDKRRGRDPEMGGKPRRKNPQEGLYNELQKDKMAEAYSEIGMKGERRRGKGHDGLYQGLSTATKDTYDALHMQALPPR
[1]
  cross-reactivity against cynomolgus CD123: is not
